Laboratory results as given in US20190022198A1, “Individualized Immunomodulation Therapy for Neurodegenerative Disorders, CNS Injury and Age-Related Dementia” (Yeda Research and Development Co. Ltd., priority 2012, published 2019).
Entries after “also recorded” stand apart in the source; their conditions may differ.

How the values were obtained:
Foxp3-DTR mice = test: Foxp3+ Treg depletion by diphtheria toxin in DEREG (Foxp3-DTR) mice; format: in vivo, mouse
CP epithelial cells = test: Primary culture of choroid plexus cells treated with cytokines, mRNA by real-time qPCR; format: cell-based, mouse; conditions: for gene expression levels of trafficking molecules (ICAM-1, VCAM-1, CCL5, CXCL9, CXCL10, MHC-II): cultured CP cells from WT mice; for gene expression levels of trafficking molecules (ICAM-1, VCAM-1, CCL5, CXCL9, CXCL10, MHC-II) / expression of IFN-γ-receptor (IFN-γR) mRNA: IL-6 10 ng/ml; for gene expression levels of trafficking molecules (ICAM-1, VCAM-1, CCL5, CXCL9, CXCL10, MHC-II) / expression of the chemokine CCL20: IL-17 100 ng/ml; for expression of trafficking-related genes, escalating dosing of the cytokines: escalating dosing (data not shown); for ccl11 mRNA levels (CCL11 expression): cultured CP epithelial cells from young (3 months) mice, 24 hours after addition; for expression of the chemokine CCL20 / expression of IFN-γ-receptor (IFN-γR) mRNA: CP epithelial cells; for expression of IFN-γ-receptor (IFN-γR) mRNA: TNF-α 100 ng/ml, IL-1β 100 ng/ml
Description: Mice were perfused from the left ventricle of the heart with PBS, and their CPs were removed under a dissecting microscope (Stemi DV4; Zeiss) in PBS into tubes containing 0.25% trypsin, and kept on ice. The tubes were shaken for 20 minutes at 37° C. and the tissue was dissociated by pipetting. The cell suspension was washed in culture medium for epithelial cells (DMEM/HAM's F12 (Invitrogen Corp)) supplemented with 10% FCS (Sigma-Aldrich), 1 mM 1-glutamine, 1 mM sodium pyruvate, 100 U/ml penicillin, […] streptomycin, 5 μg/ml Insulin, 20 μM Ara-C, 5 ng/ml sodium selenite, 10 ng/ml EGF, and cultured (˜250,000 cells/well) at 37° C., 5% CO2 in 24-well plates (Corning Incorporated) coated with poly-L-lysine (PLL; Sigma-Aldrich). After 24 hours, the medium was changed, and the cells were either left untreated, or treated with the indicated cytokines (all purchased from PeproTech): IFN-γ, IL-4, IL-10, IL-17A, GM-CSF, IL-6, IL-1β or TNF-α or their combinations for 24 h. Cell viability was quantified by Trypan blue staining after detachment of the cells with 0.25% trypsin for 10 minutes at 37° C. Neutralizing antibodies to TNF-R1 or TNF-R2 ([…], BioLegend) were added 1 h prior to the addition of TNF-α (100 ng/ml). RNA was isolated using the ZR RNA microprep kit (Zymo Research) according to the manufacturer's protocol.
Total RNA of the hippocampus was extracted with TRI reagent (MRC, Cincinnati, Ohio) and was purified from the lysates and spinal cord using the RNeasy kit (Qiagen, Hilden, Germany). Total RNA of the choroid plexus was extracted using the RNA MicroPrep kit (Zymo Research). mRNA (1 μg) was converted to cDNA using High Capacity cDNA Reverse Transcription Kit (Applied Biosystems). The expression of specific mRNAs was assayed using fluorescence based real-time quantitative PCR (qPCR). qPCR reactions were performed using Power SYBR Green PCR Master Mix (Applied Biosystems). Quantification reactions were performed in triplicates for each sample using the standard curve method. Glyceraldehyde 3-phosphate dehydrogenase (GAPDH), Peptidylprolyl isomerase A (PPIA), and hypoxanthine guanine phosphoribosyltransferase (HPRT) were chosen as reference genes according to their stability in the target tissue. The amplification cycles were 95° C. for 5 sec, 60° C. for 20 sec, and 72° C. for 15 sec. At the end of the assay, a melting curve was constructed to evaluate the specificity of the reaction. For some genes, the cDNA was pre-amplified in 14 PCR cycles with non-random PCR primers, thus increasing the sensitivity of the subsequent real-time PCR analysis (PreAmp Master Mix Kit, Applied Biosystems). For these genes, expression was determined using TaqMan Real-Time PCR, according to manufacturer's instructions (Applied Biosystems). All quantitative real-time PCR reactions were performed and analyzed using the 7500 Real-Time PCR System (Applied Biosystems). The following TaqMan probes were used: Mm02342430_g1 (ppia), Mm00446968_m1 (hprt), Mm00445260_m1 (il-4), Mm01168134_m1 (ifn-γ), Mm00441238_m1 (ccl11), Mm00475988_m1 (arg-1). In addition, the following primers were used: […]

cultured CP cells = test: Immunocytochemistry of cultured CP cells treated with cytokines; format: cell-based, mouse
Description: For whole mount staining of the choroid plexus, isolated tissues were fixed with 2.5% paraformaldehyde (PFA) for several hours, and subsequently transferred to PBS containing 0.05% sodium azide. Prior to staining, the dissected tissues were washed and blocked (20% horse serum, 0.3% Triton X-100, and PBS) for 1 h at room temperature with shaking. Whole mount staining with primary (in PBS containing 2% horse serum and 0.3% Triton X-100) and secondary antibodies (in PBS), was performed for 1h at room temperature, with shaking. Each step was followed by three washes in PBS. The tissues were mounted onto slides, using Immu-mount (9990402, from Thermo), and sealed with cover-slips. For staining of sectioned brains, two different tissue preparation protocols (paraffin embedded and microtomed frozen sections) were applied, as previously described (Ziv Y et al (2006b)). For immunocytochemistry, CP cells were isolated as described above and were grown on PLL coated cover slips for 7 days, replacing the medium every 3 days. Cytokines were added for the last 3 days of culture. Following 7 days of culture, the wells were washed with PBS and the cells were fixed either with 2.5% paraformaldehyde for 30 min or methanol-acetone (1:1) for 10 min at −20° C., following by 2 washing steps with PBS. For CCL11 staining, cells were treated with Brefeldin-A 2 hours prior to fixation in order to arrest protein secretion. The cover slips of the cultured CP cells were incubated with the indicated antibodies and mounted with Glycerol Vinyl Alcohol (GVA) mounting solution (Invitrogen). The following primary antibodies were used: rat anti-CD3 (Abcam); rat anti-ICAM-1 (1:100; Abcam), chicken anti-vimentin (1:500, Millipore), rabbit anti-Iba1 (1:300; Wako), goat anti-IL-10 (1:20; R&D), mouse anti-MHC-II (Abcam); mouse anti-Arginase-1 (BD Biosciences); mouse anti-Cytokeratin (Covance); rat anti-CCL11 (R&D Systems); rabbit anti-ZO-1 (Invitrogen); and rabbit anti-Claudin-1 (Invitrogen). Secondary antibodies included: Cy2/Cy3-conjugated donkey anti-rat, mouse or rabbit antibody and Cy3 conjugated donkey anti-mouse, goat, rat, chicken or rabbit (1:200; all from Jackson Immuno Research). The slides were exposed to Hoechst stain (1:2000; Invitrogen) for 1 min. Two negative controls were routinely used in immunostaining procedures, staining with isotype control antibody followed by secondary antibody, and staining with secondary antibody alone. For morphological quantification, average cross-sectional area of epithelial cells was measured following Nissl staining. Cell borders (20-25 cells per picture) were marked and the area was quantified using Image-Pro Plus software in a blinded fashion.

[1] = 24 hours, IFN-γ 100 ng/ml, IL-4 10 ng/ml

Molecule: diphtheria toxin [DTX]
- Foxp3+ T cells in the spleen, the CP and the CSF (Foxp3-DTR mice; DTX 8 ng/g i.p. per day for 4 days, DTR+ mice): depleted
- mRNA of ICAM-1, CXCL9, CXCL10, CXCL11, MCP-1, MCSF, BDNF and IGF-1 in the CP (Foxp3-DTR mice; following Foxp3+ T cells depletion by DTX): significantly upregulated

Molecule: IL-4: Th2-derived cytokine, purchased from PeproTech, added to cultured CP cells
- gene expression levels of trafficking molecules (ICAM-1, VCAM-1, CCL5, CXCL9, CXCL10, MHC-II) (CP epithelial cells; [1]): no effect on trafficking molecules
- expression of trafficking-related genes, escalating dosing of the cytokines (CP epithelial cells; cultured CP cells): None of the tested cytokines, other than IFN-γ, had any effect
- ccl11 mRNA levels (CCL11 expression) (CP epithelial cells; IL-4 10 ng/ml, IFN-γ 100 ng/ml): expressed high levels of CCL11
- arginase-1 (Arg1) expression (CP epithelial cells; cultured CP epithelial cells, IL-4 10 ng/ml, 24 h): upregulated arginase-1; also recorded: dramatic effect on the upregulation of arginase-1
- epithelial tight junctions (ZO-1 staining) (cultured CP cells; CP epithelial cell cultures in response to IL-4 (data not shown)): dysregulated
- CCL11 immunoreactivity (cultured CP cells; CP epithelium, IL-4, following Brefeldin-A treatment (data not shown)): produced CCL11
- Arg1 immunostaining (cultured CP cells; IL-4 (10 ng/ml) treated CP epithelial cells): higher relative to untreated cells

B1: GM-CSF: cytokine purchased from PeproTech (protein, UniProt P01587 18-141, looked up)
Granulocyte-macrophage …: APTRSPITVTRPWKHVEAIKEALNLLDDMPVTLNEEVEVVSNEFSFKKLTCVQTRLKIFEQGLRGNFTKLKGALNMTASYYQTYCPPTPETDCETQVTTYADFIDSLKTFLTDIPFECKKPGQK
- expression of trafficking-related genes, escalating dosing of the cytokines (CP epithelial cells; cultured CP cells): None of the tested cytokines, other than IFN-γ, had any effect

B2: IFN-γ: Th1-derived cytokine, purchased from PeproTech, added to cultured CP cells (protein, UniProt P01580 23-155, looked up)
Interferon gamma: HGTVIESLESLNNYFNSSGIDVEEKSLFLDIWRNWQKDGDMKILQSQIISFYLRLFEVLKDNQAISNNISVIESHLITTFFSNSKAKKDAFMSIAKFEVNNPQVQRQAFNELIRVVHQLLPESSLRKRKRSRC
- expression of trafficking molecules (ICAM-1, VCAM-1, CCL5, CXCL10) mRNA (CP epithelial cells; CP epithelial cells from 70 day old WT and mSOD1 mice, IFN-γ 100 ng/ml, 24h): elevated the expression of trafficking molecules by both WT and mSOD1 CP cultures to a similar degree
- expression of the chemokine CCL20 (CP epithelial cells; IFN-γ 100 ng/ml, 24 h): not
- expression of trafficking molecules, IFN-γ combined with TNF-α (CP epithelial cells; IFN-γ 100 ng/ml combined with TNF-α 100 ng/ml, 24 hours, most of the tested genes): strong synergistic effect
- effect of IL-4 on CCL11 production (CP epithelial cells; IFN-γ (100 ng/ml) added together with IL-4, young CP epithelial cells, 24 hours): reversed the effect of IL-4 on CCL11 production
- gene expression levels of trafficking molecules (ICAM-1, VCAM-1, CCL5, CXCL9, CXCL10, MHC-II) (CP epithelial cells; [1]): induced the upregulation of a wide array of trafficking molecules
- expression of TNF-R1 mRNA (CP epithelial cells; cultured CP cells, IFN-γ 100 ng/ml, 24 h): elevated the expression of TNF-R1
- expression of chemokines CCL2, Fractalkine (CX3CL1) and M-CSF (CP epithelial cells; cultured CP cells, IFN-γ 100 ng/ml, 24 hours): upregulated
- expression of trafficking-related genes, escalating dosing of the cytokines (CP epithelial cells; cultured CP cells): activated the CP in a dose dependent manner
- basal CCL11 expression (CP epithelial cells; cultured CP epithelial cells from old (22 months) mice, IFN-γ 100 ng/ml, 24 hours): decreased basal CCL11 expression
- ccl11 mRNA levels (CCL11 expression) (CP epithelial cells; IL-4 10 ng/ml, IFN-γ 100 ng/ml): had no effect on CCL11 expression
- ICAM-1 and VCAM-1 immunostaining on CP epithelial cells (cultured CP cells; 3 days after addition of IFN-γ (100 ng/ml)): elevated
- IL-4 induced CCL11 immunoreactivity (cultured CP cells; co-incubation of IFN-γ with IL-4, following Brefeldin-A treatment (data not shown)): reversed this induction

B3: IL-10: Treg-derived cytokine, purchased from PeproTech (protein, UniProt P18893 19-178, looked up)
Interleukin-10: SRGQYSREDNNCTHFPVGQSHMLLELRTAFSQVKTFFQTKDQLDNILLTDSLMQDFKGYLGCQALSEMIQFYLVEVMPQAEKHGPEIKEHLNSLGEKLKTLRMRLRRCHRFLPCENKSKAVEQVKSDFNKLQDQGVYKAMNEFDIFINCIEAYMMIKMKS
- expression of trafficking-related genes, escalating dosing of the cytokines (CP epithelial cells; cultured CP cells): None of the tested cytokines, other than IFN-γ, had any effect

B4: IL-17: Th17-derived cytokine, purchased from PeproTech (protein, UniProt Q62386 26-158, looked up)
Interleukin-17A: AAIIPQSSACPNTEAKDFLQNVKVNLKVFNSLGAKVSSRRPSDYLNRSTSPWTLHRNEDPDRYPSVIWEAQCRHQRCVNAEGKLDHHMNSVLIQQEILVLKREPESCPFTFRVEKMLVGVGCTCVASIVRQAA
- expression of the chemokine CCL20 (CP epithelial cells; IFN-γ 100 ng/ml, 24 h): elevated the expression of the chemokine CCL20
- gene expression levels of trafficking molecules (ICAM-1, VCAM-1, CCL5, CXCL9, CXCL10, MHC-II) (CP epithelial cells; [1]): failed to activate the choroid plexus for trafficking

B5: IL-1β: pro-inflammatory cytokine, purchased from PeproTech (protein, UniProt P10749 118-269, looked up)
Interleukin-1 beta: VPIRQLHYRLRDEQQKSLVLSDPYELKALHLNGQNINQQVIFSMSFVQGEPSNDKIPVALGLKGKNLYLSCVMKDGTPTLQLESVDPKQYPKKKMEKRFVFNKIEVKSKVEFESAEFPNWYISTSQAEHKPVFLGNNSGQDIIDFTMESVSS
- expression of IFN-γ-receptor (IFN-γR) mRNA (CP epithelial cells; 24 h): elevated the expression of IFN-γ-receptor

B6: IL-6: pro-inflammatory cytokine, purchased from PeproTech (protein, UniProt P08505 25-211, looked up)
Interleukin-6: FPTSQVRRGDFTEDTTPNRPVYTTSQVGGLITHVLWEIVEMRKELCNGNSDCMNNDDALAENNLKLPEIQRNDGCYQTGYNQEICLLKISSGLLEYHSYLEYMKNNLKDNKKDKARVLQRDTETLIHIFNQEVKDLHKIVLPTPISNALLTDKLESQKEWLRTKTIQFILKSLEEFLKVTLRSTRQT
- expression of IFN-γ-receptor (IFN-γR) mRNA (CP epithelial cells; 24 h): not
- gene expression levels of trafficking molecules (ICAM-1, VCAM-1, CCL5, CXCL9, CXCL10, MHC-II) (CP epithelial cells; [1]): neither IL-17, nor its induced cytokine IL-6, had any effect
- expression of trafficking-related genes, escalating dosing of the cytokines (CP epithelial cells; cultured CP cells): None of the tested cytokines, other than IFN-γ, had any effect
